Measurements as given in patent US20240059799A1 (Pfizer, published 2024).

Key:
recombinant human TL1A = molecular target: T1, recombinant human TL1A (human, UniProt O95150 71-251); test: SPR, antibody injected over captured biotinylated human TL1A
T1 construct: homotrimer; biotinylated for SPR capture; the ELISA paragraphs say only 'recombinant TL1A'; also called TNFSF15
T1 chain: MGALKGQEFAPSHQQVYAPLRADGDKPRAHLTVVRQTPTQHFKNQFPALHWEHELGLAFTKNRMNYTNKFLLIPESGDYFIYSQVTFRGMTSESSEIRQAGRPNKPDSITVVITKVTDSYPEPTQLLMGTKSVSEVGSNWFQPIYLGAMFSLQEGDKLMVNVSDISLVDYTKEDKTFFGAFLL
Method: An SPR assay was also used to determine whether the [xTL1A] bivalent antibody variants could bind recombinant human TL1A. […] A high concentration (1 μM) of [xTL1A] variant antibodies were injected in assay buffer (HBS-EP+, pH 7.4, Cytiva, product number BR100669).

human IL-23 = molecular target: T2, human IL-23 (human, UniProt P29460 23-328; Q9NPF7 20-189); test: SPR 37 C, antibody captured by anti-human Fc, cytokine injected
T2 construct: Heterodimer p40/p19; Whole entries as named; also called IL-23 Human; recombinant human IL-23
T2 sequence 1: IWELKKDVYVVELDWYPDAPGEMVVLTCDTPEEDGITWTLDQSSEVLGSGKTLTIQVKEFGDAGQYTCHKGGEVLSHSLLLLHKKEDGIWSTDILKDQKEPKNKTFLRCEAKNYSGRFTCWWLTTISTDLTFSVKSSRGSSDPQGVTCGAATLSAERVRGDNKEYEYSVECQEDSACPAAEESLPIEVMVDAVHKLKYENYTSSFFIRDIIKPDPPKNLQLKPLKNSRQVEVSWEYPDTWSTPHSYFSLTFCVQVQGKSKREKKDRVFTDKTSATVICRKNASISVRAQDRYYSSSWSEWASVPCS
T2 sequence 2: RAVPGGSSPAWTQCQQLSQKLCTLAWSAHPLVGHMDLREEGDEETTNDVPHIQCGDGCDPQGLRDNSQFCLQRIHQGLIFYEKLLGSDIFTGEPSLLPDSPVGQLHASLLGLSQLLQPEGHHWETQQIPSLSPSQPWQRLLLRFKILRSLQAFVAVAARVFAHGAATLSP
Method: (§1) For these analyses, kinetic assays were conducted at 37° C. using a collection rate of 10 Hz on a BIAcore™ T200 instrument (GE Healthcare). An anti-human IgG antibody (anti-human Fc, catalog number 10-005-098, Jackson ImmunoResearch) was amine coupled to all four flow cells of a carboxymethylated dextran coated sensor chip (GE Healthcare) using the manufacturer's recommended protocol.

human IL-12 = molecular target: T3, human IL-12 (human, UniProt P29460 23-328; P29459 23-219); test: as above
T3 construct: Heterodimer p40/p35; also called IL-12 Human
T3 sequence 1: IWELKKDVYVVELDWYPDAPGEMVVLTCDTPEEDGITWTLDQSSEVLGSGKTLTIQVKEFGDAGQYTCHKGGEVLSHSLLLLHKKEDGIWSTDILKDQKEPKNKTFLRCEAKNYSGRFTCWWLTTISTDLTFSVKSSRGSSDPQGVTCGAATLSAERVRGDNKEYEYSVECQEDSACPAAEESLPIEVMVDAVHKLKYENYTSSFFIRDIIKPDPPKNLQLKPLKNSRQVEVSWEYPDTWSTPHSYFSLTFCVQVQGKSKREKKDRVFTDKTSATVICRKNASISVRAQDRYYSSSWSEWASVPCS
T3 sequence 2: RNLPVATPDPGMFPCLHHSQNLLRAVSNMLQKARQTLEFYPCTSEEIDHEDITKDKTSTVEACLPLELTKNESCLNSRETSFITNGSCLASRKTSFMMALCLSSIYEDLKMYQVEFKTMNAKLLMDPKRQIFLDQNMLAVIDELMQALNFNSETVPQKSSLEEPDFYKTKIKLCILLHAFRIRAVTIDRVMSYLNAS
Method: as §1

cynomolgus monkey IL-23 = molecular target: T4, cynomolgus monkey IL-23 (cynomolgus monkey, limits assumed); test: as above
T4 construct: Heterodimer p40/p19; Whole entries as named; also called IL-23 Cyno
T4 chain 1: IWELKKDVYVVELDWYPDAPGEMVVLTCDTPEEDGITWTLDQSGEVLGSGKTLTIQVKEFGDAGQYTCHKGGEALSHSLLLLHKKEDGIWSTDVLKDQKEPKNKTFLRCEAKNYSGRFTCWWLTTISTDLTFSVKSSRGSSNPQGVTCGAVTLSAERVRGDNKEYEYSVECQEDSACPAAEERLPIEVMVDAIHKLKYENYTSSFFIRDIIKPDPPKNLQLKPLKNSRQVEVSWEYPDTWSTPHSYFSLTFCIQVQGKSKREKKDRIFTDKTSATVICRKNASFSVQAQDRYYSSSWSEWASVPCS
T4 chain 2: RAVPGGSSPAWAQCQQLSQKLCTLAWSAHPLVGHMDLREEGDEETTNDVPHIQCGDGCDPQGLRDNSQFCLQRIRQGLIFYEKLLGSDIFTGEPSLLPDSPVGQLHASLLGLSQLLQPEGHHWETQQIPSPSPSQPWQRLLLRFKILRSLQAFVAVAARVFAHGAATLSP
Method: as §1

cynomolgus monkey IL-12 = molecular target: T5, cynomolgus monkey IL-12 (cynomolgus monkey); test: as above
T5 construct: Heterodimer p40/p35; Whole entries as named; also called IL-12 Cyno
T5 chain 1: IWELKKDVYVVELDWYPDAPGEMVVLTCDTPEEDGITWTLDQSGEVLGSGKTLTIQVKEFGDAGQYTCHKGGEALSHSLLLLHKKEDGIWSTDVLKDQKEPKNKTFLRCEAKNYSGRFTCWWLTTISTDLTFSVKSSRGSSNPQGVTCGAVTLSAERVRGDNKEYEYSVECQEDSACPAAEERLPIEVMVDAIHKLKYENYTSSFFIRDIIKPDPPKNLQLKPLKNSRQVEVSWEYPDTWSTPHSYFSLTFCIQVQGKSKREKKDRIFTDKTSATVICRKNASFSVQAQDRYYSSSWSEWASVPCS
T5 chain 2: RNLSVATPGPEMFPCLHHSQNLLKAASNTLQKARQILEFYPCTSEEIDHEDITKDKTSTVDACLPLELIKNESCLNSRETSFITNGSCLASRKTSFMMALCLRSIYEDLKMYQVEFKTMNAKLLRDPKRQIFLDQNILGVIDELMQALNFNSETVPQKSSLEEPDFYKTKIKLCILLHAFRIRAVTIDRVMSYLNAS
Method: as §1

| Binder | binding result (recombinant human TL1A) | Kd (human IL-23) [nM] | Kd (human IL-12) [nM] | Kd (cynomolgus monkey IL-23) [nM] | Kd (cynomolgus monkey IL-12) [nM] |
| --- | --- | --- | --- | --- | --- |
| [xTL1A]-0349 bivalent antibody (antibody, human IgG1, kappa, V domains shown, disabled (null) bivalent IgG1/kappa) VH: not shown VL: DIQMTQSPSSLSASVGDRVTITCRASQSVSSYLAWYQQKPGKAPKLLIYDASNRATGVPSRFSGSGSGTDFTLTISSLQPEDFATYYCQQRSNWPWTFGQGTKVEIKR | no binding (tested: 1 µM) |  |  |  |  |
| p40-0003 (antibody, human IgG1, kappa, V domains shown, human IgG1 effector-function-minimized/kappa; also called anti-IL12p40 p40-0003 antibody; C230 (ustekinumab) variable regions) VH: EVQLVQSGAEVKKPGESLKISCKGSGYSFTTYWLGWVRQMPGKGLDWIGIMSPVDSDIRYSPSFQGQVTMSVDKSITTAYLQWNSLKASDTAMYYCARRRPGQGYFDFWGQGTLVTVSS VL: DIQMTQSPSSLSASVGDRVTITCRASQGISSWLAWYQQKPEKAPKSLIYAASSLQSGVPSRFSGSGSGTDFTLTISSLQPEDFATYYCQQYNIYPYTFGQGTKLEIKR |  | 0.16 | 0.156 | 0.317 | 0.368 |
